Tests used:
[1] = Stability assay of PTH 1-34 in various buffer solutions over 24 hr at 37° C.; type: physicochemical
Protocol: The stability of PTH 1-34 in various buffer solutions over 24 hr at 37° C. was evaluated to allow selection of a suitable buffer for in vitro release experiments. The lyophilized peptide (0.1 mg) was dissolved in each buffer solution that was tested. The concentration of PTH 1-34 in samples withdrawn from the solution at 0, 4, 8, and 24 hours were analyzed by HPLC (Gemini (Phenomenex) 5 μ C18, 250×4.6; mobile phase˜0.1% Trifluoroacetic acid/Acetonotrile:0.1% Trifluoroacetic acid/Water, gradient elution, 1 mL/min; 100 μL injection, UV PDA detection at 214).

[2] = Stability of the peptide in 1% acid solution, incubation for 24 hr at 37° C.; type: physicochemical; settings: 1% acetic acid
Protocol: PTH 1-34 (molecular weight of 4117.8, UCB Bioproducts, USA) was received as a lyophilized powder. The peptide was made up in 1% acetic acid. The stability of the peptide in 1% acid solution was confirmed by incubating it for 24 hr at 37° C.

## PTH 1-34: Parathyroid hormone fragment 1-34, molecular weight 4117.8, UCB Bioproducts, lyophilized powder
[1]; KCl/Cl buffer pH=2.2, over 24 hr
  stability at pH=2.2 over 24 hr: stable
[1]; buffer pH=1.2, 37° C.
  stability at pH=1.2: decreased stability
[1]; buffer pH>7, 37° C.
  stability at pH>7: decreased stability
[1]; various buffer solutions, 24 hr at 37° C.
  stability in various buffer solutions: stable over a wide range of pH values
[2]
  stability of the peptide in 1% acid solution: confirmed

From patent US20090304768A1, “Gastro-Retentive System for the Delivery of Macromolecules” (INTEC PHARMA LTD, priority 2006, published 2009)
